One assay concerns the target T1, TAF15 (human, UniProt Q92804-2 1-589, limits assumed).
T1 construct: Identified by mass spectrometry in the co-IP; also called NP_003478.1 (+1)
Kind of assay: co-IP with mouse anti-FLAG from lysate of cells overexpressing N-FLAG B3GNT2, then mass spectrometry. The procedure: (§1) Cells were plated in 10-cm cell culture dishes and grown to 60-80% confluency. For each condition, two biological replicates were harvested for co-IP. Cells were washed with PBS and 4 mL of lysis buffer (20 mM HEPES, 1% Triton X-100, 150 mM NaCl, 1 mM EDTA, and 10% glycerol) containing protease inhibitor cocktail was added. Cells were scraped and lysate was incubated at 4° C. under rotary agitation for 1 h. Lysate was centrifuged at 14,000×g for 10 min at 4° C. Supernatant was transferred to a new tube and an aliquot was taken as the input. […] For Western blots, 10 μg/mL Chicken Anti-FLAG (Aves labs ET-DY100) and IgY control (R&D Systems AB-101-C) antibodies were biotinylated (Thermo Fisher Scientific 90407) and added to the respective conditions. Lysates with antibodies were incubated at 4° C. under rotary agitation overnight. For each mL of lysate, 50 μL of Pierce Protein A/G Magnetic Beads (Mass spectrometry; Thermo Fisher Scientific 88803) or Pierce Streptavidin Magnetic Beads (Western blot; Thermo Fisher Scientific 88817) was washed twice with lysis buffer. Lysates with antibodies were added to the beads and incubated at 4° C. under rotary agitation for 4 h. Beads were washed with lysis buffer 3 times and resuspended in lysis buffer for storage.
(§2) Magnetic beads were resuspended in 100 mM Tris pH 7.8, reduced, alkylated and digested with trypsin at 37° ° C. overnight. This solution was subjected to solid phase extraction to concentrate the peptides and remove unwanted reagents followed by injection onto a Shimadzu HPLC with fraction collector. Eight fractions were collected and after concentration were injected on a Waters NanoAcquity HPLC equipped with a self-packed Aeris 3 μm C18 analytical column 0.075 mm by 20 cm, (Phenomenex). Peptides were eluted using standard reverse-phase gradients. The effluent from the column was analyzed using a Thermo Orbitrap Elite mass spectrometer (nanospray configuration) operated in a data dependent manner for 54 minutes. The resulting fragmentation spectra were correlated against the known database using Proteome Discover 1.4 (Thermo Fisher Scientific).

A further assay concerns the target T2, TIMP3 (human, UniProt P35625 24-211).
T2 construct: Identified by mass spectrometry in the co-IP; also called NP_000353.1
T2 sequence (looked up): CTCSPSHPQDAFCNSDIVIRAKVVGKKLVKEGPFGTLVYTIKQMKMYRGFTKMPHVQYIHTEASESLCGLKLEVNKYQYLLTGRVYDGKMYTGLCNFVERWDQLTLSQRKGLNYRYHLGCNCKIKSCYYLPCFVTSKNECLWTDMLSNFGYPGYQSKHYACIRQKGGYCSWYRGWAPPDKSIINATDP
Described as above. The procedure: as §1, §2

The target of a further assay is T3, TCP1 (human, UniProt P17987 1-556).
T3 construct: Identified by mass spectrometry in the co-IP; also called NP_110379.2
T3 sequence (P17987 whole entry): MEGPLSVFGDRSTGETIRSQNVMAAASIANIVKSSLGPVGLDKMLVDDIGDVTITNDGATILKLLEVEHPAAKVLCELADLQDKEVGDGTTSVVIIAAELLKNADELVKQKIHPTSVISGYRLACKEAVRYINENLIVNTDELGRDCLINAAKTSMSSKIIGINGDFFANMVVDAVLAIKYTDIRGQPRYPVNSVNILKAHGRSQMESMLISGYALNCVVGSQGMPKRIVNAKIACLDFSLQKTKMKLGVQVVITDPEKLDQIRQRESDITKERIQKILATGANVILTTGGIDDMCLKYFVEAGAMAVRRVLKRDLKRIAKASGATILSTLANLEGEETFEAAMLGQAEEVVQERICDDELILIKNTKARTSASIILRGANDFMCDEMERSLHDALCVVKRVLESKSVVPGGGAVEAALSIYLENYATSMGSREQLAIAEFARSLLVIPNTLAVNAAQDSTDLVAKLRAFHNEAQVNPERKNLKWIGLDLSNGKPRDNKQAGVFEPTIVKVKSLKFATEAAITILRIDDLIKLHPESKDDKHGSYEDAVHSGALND
Described as above. The procedure:
as §1, §2

For the next assay, the target named is T4, SUPT16H (human, UniProt Q9Y5B9 2-1047).
T4 construct: Identified by mass spectrometry in the co-IP; also called NP_009123.1 (+1)
T4 sequence (Q9Y5B9 2-1047 limits assumed): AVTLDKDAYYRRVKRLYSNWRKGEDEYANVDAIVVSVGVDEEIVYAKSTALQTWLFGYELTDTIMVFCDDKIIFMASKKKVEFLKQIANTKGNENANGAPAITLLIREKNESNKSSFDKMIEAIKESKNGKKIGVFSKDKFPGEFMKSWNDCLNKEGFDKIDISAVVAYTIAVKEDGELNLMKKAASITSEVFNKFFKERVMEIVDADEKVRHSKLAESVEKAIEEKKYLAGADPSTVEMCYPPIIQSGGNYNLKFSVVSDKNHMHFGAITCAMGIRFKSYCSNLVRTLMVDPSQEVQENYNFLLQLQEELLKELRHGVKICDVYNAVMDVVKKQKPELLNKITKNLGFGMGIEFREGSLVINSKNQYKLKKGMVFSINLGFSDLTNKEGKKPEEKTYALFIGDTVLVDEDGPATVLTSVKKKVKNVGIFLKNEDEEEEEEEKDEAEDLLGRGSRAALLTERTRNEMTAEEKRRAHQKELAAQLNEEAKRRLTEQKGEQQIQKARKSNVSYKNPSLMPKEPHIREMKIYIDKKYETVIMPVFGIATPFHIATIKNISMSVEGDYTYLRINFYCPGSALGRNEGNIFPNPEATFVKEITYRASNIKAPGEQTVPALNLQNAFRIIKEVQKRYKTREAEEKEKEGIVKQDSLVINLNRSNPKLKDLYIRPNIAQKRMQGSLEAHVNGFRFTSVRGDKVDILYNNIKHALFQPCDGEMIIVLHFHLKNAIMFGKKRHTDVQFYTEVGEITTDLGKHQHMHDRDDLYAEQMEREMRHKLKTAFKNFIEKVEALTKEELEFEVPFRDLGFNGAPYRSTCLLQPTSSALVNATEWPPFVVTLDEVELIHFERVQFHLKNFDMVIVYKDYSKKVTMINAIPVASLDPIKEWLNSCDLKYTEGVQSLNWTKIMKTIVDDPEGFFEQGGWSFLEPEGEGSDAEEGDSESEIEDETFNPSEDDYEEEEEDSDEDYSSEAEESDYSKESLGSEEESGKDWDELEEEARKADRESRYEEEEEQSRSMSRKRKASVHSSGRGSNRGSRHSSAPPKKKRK
The description is as above. On the procedure: as §1, §2

A further assay addresses T5, EIF3I (human, UniProt Q13347 1-325).
T5 construct: Identified by mass spectrometry in the co-IP; also called NP_003748.1
Described as above. On the procedure: as §1, §2

The target of another assay is T6, CPSF6 (human, UniProt Q16630-2 1-588, limits assumed).
T6 construct: Identified by mass spectrometry in the co-IP; also called NP_001287876.1 (+3)
T6 sequence (looked up): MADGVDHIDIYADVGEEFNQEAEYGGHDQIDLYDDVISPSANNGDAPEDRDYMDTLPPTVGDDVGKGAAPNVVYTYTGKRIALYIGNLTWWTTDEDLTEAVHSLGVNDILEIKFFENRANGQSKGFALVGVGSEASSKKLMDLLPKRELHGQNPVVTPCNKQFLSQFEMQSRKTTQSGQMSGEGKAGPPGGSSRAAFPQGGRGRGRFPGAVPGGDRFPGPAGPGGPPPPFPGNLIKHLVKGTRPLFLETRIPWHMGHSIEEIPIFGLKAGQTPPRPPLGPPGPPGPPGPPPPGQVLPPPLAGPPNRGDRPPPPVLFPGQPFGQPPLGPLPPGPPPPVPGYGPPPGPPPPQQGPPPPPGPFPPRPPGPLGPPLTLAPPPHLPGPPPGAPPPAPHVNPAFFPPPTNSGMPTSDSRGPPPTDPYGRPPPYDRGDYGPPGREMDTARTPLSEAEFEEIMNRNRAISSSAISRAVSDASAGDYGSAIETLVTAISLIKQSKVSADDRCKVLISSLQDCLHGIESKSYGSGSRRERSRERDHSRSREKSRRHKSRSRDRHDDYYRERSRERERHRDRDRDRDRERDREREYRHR
The description is as above. On the procedure:
as §1, §2

For another assay, the target named is RPL34 (human, UniProt P49207 2-117). Kind of assay: anti-FLAG co-IP from lysate of N-FLAG B3GNT2 cells, mass spectrometry. On the procedure:
as §1, §2

The target in another assay is T7, RCN1 (human, UniProt Q15293 30-331).
T7 construct: also called NP_002892.1
T7 sequence (looked up): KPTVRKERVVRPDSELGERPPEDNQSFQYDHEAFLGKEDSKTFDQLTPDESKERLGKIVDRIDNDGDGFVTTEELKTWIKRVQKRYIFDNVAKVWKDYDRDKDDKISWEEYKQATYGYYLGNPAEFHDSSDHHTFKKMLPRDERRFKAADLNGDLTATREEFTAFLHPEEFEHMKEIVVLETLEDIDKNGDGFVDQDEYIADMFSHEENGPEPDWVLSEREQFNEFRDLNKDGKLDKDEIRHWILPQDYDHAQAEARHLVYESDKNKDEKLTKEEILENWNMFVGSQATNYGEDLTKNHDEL
The assay is described as above. The procedure: as §1, §2

The source of these data is US20240261333A1 (published 2024).

T5 sequence (Q13347 whole entry): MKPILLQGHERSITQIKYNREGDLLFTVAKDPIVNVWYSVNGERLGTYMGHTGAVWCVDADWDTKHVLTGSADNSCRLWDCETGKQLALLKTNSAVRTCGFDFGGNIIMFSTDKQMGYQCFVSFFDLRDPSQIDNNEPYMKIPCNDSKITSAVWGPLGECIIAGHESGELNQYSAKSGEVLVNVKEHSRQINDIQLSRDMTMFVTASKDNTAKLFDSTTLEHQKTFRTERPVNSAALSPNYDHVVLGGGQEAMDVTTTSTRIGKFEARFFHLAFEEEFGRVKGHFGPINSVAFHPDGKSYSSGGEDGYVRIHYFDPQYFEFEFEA
T1 sequence (Q92804 other isoform, or with tags, fused parts or gaps limits assumed): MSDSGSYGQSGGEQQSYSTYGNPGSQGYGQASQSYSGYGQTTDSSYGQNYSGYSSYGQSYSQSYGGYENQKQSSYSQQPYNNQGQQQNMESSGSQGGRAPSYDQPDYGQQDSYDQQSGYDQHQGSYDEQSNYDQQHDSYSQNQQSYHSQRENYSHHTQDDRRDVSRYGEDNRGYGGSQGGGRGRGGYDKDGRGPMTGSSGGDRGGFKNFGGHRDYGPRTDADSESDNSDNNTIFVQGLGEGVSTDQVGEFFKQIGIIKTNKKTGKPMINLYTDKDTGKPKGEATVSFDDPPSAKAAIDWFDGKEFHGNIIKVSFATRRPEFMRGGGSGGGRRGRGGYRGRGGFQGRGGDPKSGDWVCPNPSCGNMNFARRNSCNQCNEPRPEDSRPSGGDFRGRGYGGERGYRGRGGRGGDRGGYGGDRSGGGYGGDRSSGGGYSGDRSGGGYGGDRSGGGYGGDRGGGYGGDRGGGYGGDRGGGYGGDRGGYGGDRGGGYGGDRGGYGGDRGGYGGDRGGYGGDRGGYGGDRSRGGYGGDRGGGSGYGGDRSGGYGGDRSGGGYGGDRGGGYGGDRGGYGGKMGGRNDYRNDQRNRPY

B1: N-terminal FLAG tagged B3GNT2 (enzyme, human, UniProt Q9NY97 1-397, looked up)
chain: MSVGRRRIKLLGILMMANVFIYFIMEVSKSSSQEKNGKGEVIIPKEKFWKISTPPEAYWNREQEKLNRQYNPILSMLTNQTGEAGRLSNISHLNYCEPDLRVTSVVTGFNNLPDRFKDFLLYLRCRNYSLLIDQPDKCAKKPFLLLAIKSLTPHFARRQAIRESWGQESNAGNQTVVRVFLLGQTPPEDNHPDLSDMLKFESEKHQDILMWNYRDTFFNLSLKEVLFLRWVSTSCPDTEFVFKGDDDVFVNTHHILNYLNSLSKTKAKDLFIGDVIHNAGPHRDKKLKYYIPEVVYSGLYPPYAGGGGFLYSGHLALRLYHITDQVHLYPIDDVYTGMCLQKLGLVPEKHKGFRTFDIEEKNKNNICSYVDLMLVHSRKPQEMIDIWSQLQSAHLKC
notes: FLAG-tagged ORF overexpressed in A375 cells; bait of the co-IP with mouse anti-FLAG; also called N-FLAG B3GNT2; N-term FLAG; not shown: N-terminal FLAG tag
B1: the “co-IP mass spectrometry count (N-term FLAG)” value is 5 with TAF15; 0 in the assay with TIMP3; 0 with TCP1; 0 with SUPT16H; 0 with EIF3I; 30 with CPSF6.

B2: N-terminal FLAG tagged B3GNT2 (enzyme, human, UniProt Q9NY97 1-397, looked up)
chain: B1 chain
notes: Bait of the co-IP; pulled down from cell lysate with mouse anti-FLAG antibody; also called N-FLAG B3GNT2; N-term FLAG; not shown: N-terminal FLAG tag
As to B2, the “co-IP mass spectrometry count” value in the assay with RPL34 and with RCN1 was 0 in each case.
